The record followed here is patent publication US20130130288A1 (published 2013).

The EC50 is the midpoint of the concentration-response curve. Low values mean higher potency in that assay, high ones lower potency in that assay. What is called Kd is the constant that tells how readily two partners part at equilibrium. Read a low Kd as tighter binding.

Numbering of substitutions follows the chain as printed. Numbers in names are those of the source.

Test [1] concerns the target T1, amyloid β-derived diffusible ligands (ADDLs), oligomers of Aβ1-42.
T1 construct: number of copies not defined; also called Aβ oligomers; Aβ oligomer
Briefly: ELISA, IgG2 antibodies. (In general: An ELISA detects its analyte on a solid surface through an enzyme-linked reagent.)

The target of test [2] is T1, amyloid β-derived diffusible ligands …. Briefly: BIACORE (SPR); affinity for Aβ1-40 over affinity for ADDLs. (SPR reads the build-up and loss of mass on a sensor chip optically.)
The target is the same in test [3]. Briefly: one-sided ELISA, plate coated with 50 pmol/well Aβ oligomers, chemiluminescence.
The target of test [4] is T2, Aβ1-40 monomer.
T2 construct: also called Aβ40 monomer; monomer Aβ
Briefly: ELISA on coated antigen, chemiluminescence; antibody stored 1 month at 40°.

The target in test [5] is T1, amyloid β-derived diffusible ligands …. Briefly: three-pronged Aβ ELISA (M90/1 polyclonal capture); ratio of binding to ADDLs over monomeric Aβ.
In test [6] the target is T2, Aβ1-40 monomer. Briefly: BIACORE (SPR).
Test [7] concerns the target T1, amyloid β-derived diffusible ligands …. Briefly: BIACORE (SPR).
In test [8] the target is T2, Aβ1-40 monomer. Briefly: KINEXA, equilibrium constant in solution.
Test [9] has as its target T1, amyloid β-derived diffusible ligands …. Briefly: KINEXA, equilibrium constant in solution.
Test [10] has the same target. Briefly: three-pronged Aβ ELISA (M90/1 polyclonal capture); ratio of binding to ADDLs over fibrillar Aβ.
The target is the same in test [11]. Briefly: KINEXA; constant for Aβ1-40 over constant for ADDLs.
In test [12] the target is T2, Aβ1-40 monomer. Briefly: ELISA on coated antigen, chemiluminescence; antibody stored 1 month at 4°.
Test [13] deals with T2, Aβ1-40 monomer. Briefly: one-sided ELISA, plate coated with 100 pmol/well Aβ1-40, chemiluminescence.
In test [14] the target is T2, Aβ1-40 monomer. Briefly: ELISA on coated antigen, chemiluminescence; antibody at 0 timepoint.
The target of test [15] is T2, Aβ1-40 monomer. Briefly: ELISA on coated antigen, chemiluminescence; antibody stored 1 month at 25°.
In test [16] the target is T1, amyloid β-derived diffusible ligands …. Briefly: ERENNA sandwich immunoassay, 19.3 capture, labelled 82E1 detection.
Test [17] has the same target. Briefly: sandwich ELISA, 19.3 capture and 82E1 detection, luminescence (ENVISION).
Test [18] shares this target. Briefly: one-sided ELISA on coated Aβ oligomers or Aβ1-40.
Test [19] shares this target. Briefly: … bead-based immunoassay; signal at 0.2 pM ADDLs greater than at 1000 pM Aβ1-40.
Test [20] has the same target. Briefly: competitive ELISA, ratio of the two competition EC50 values.
The target is the same in test [21]. Briefly: competitive ELISA.

B1: anti-ADDL antibody 19.3 (antibody, V domains shown)
VH: EVQLVESGGGLVQPGGSLRLSCAASGFTFSSFGMHWVRQAPGKGLEWVAYISRGSSTIYYADTVKGRFTISRDNAKNSLYLQMNSLRAEDTAVYYCARGITTALDYWGQGTLVTVSS
VL: DVVMTQSPLSLPVTPGEPASISCRSSQSIVHSNGNTYLEWYLQKPGQSPQLLIYKASNRFSGVPDRFSGSGSGTDFTLKISRVEAEDVGVYYCFQGSRLGPSFGQGTKLEIKR
In the case of B1, the EC50 in test [1] is 0.8 nM; in test [3], around 1.6 nM; with Aβ1-40 monomer [4], 88.8 nM; with Aβ1-40 monomer [12], 16.3 nM; with Aβ1-40 monomer [13], around 4.3 nM; in the test with Aβ1-40 monomer [14], 10.1 nM. The same molecule displayed a half-maximal effective concentration (EC50) in the test with Aβ1-40 monomer [15] of 22.1 nM. Moreover, the entries for the “Ratio (Aβ monomer/ADDL)” value in [2] and in [11] were around 31 ratio and around 6.2 ratio, respectively. The “ADDL:Monomer” value in test [5] is 2.5 ratio. The dissociation constant (Kd) was 150 nM with Aβ1-40 monomer [6], 4.8 nM in [7], 16.7 nM with Aβ1-40 monomer [8] and 2.7 nM in test [9]. Also, the “ADDL:Fibrillar” value in [10] worked out at 2 ratio. Moreover, in test [16], the “fold selectivity of the assay for Aβ oligomers over Aβ 40 monomer” value is 5000 fold. For the same molecule, in test [17], the “fold selectivity for Aβ oligomer signal as compared to Aβ40 monomers” value is around 1000 fold. Moreover, the “fold greater potency for Aβ oligomers as compared to Aβ40 monomer” value in [18] is around 3.7 fold. The “ADDL versus monomeric Aβ selectivity” value in test [19] is around 5000 fold. Also, the “affinity for Aβ1-42 oligomers compared to Aβ1-40 monomers” value in test [20] is around 630 ratio. Also, the “fold higher concentration of Aβ1-40 needed to displace 50% of 19.3 from Aβ oligomers than of Aβ oligomers to displace 19.3 from Aβ1-40” value in test [21] is around 600 fold.

B2: 19.3 N33T (antibody, V domains shown)
VH: B1 VH
VL: DVVMTQSPLSLPVTPGEPASISCRSSQSIVHSTGNTYLEWYLQKPGQSPQLLIYKASNRFSGVPDRFSGSGSGTDFTLKISRVEAEDVGVYYCFQGSRLGPSFGQGTKLEIL
Turning to B2, the EC50 with Aβ1-40 monomer [4] stood at 96.3 nM; with Aβ1-40 monomer [12], 307 nM; with Aβ1-40 monomer [14], 332 nM.

B3: anti-ADDL antibody 11.4 (antibody, V domains shown)
VH: B1 VH
VL: B1 VL with L99V, G100P, P101V, S102R
On to B3, for which the “ADDL:Monomer” value in test [5] turned out to be 2.4 ratio. Also, the “ADDL:Fibrillar” value in test [10] amounted to 2.4 ratio.

B4: anti-ADDL antibody 14.2 (antibody, V domains shown)
VH: B1 VH
VL: B1 VL with L99V, G100P, S102G
In the case of B4, the “ADDL:Monomer” value in test [5] stood at 4.2 ratio.

B5: anti-ADDL antibody 13.1 (antibody, V domains shown)
VH: B1 VH
VL: B1 VL with R98K, L99A, G100H
On to B5, for which the “ADDL:Monomer” value in [5] came to 2.4 ratio. For the same molecule, the “ADDL:Fibrillar” value in test [10] worked out at 2 ratio.

B6: 19.3 N33S (antibody, V domains shown)
VH: B1 VH
VL: B2 VL with T33S
In the case of B6, the half-maximal effective concentration (EC50) was determined as 29.9 nM in the test with Aβ1-40 monomer [4], 59.1 nM in the test with Aβ1-40 monomer [12], 55.1 nM in the test with Aβ1-40 monomer [14] and 24.3 nM with Aβ1-40 monomer [15].

B7: anti-ADDL antibody 17.1 (antibody, V domains shown)
VH: B1 VH
VL: B1 VL with L99V, G100P, P101A
Turning to B7, the “ADDL:Monomer” value in test [5] is 3.2 ratio. The “ADDL:Fibrillar” value in [10] turned out to be 2.1 ratio.
